Measured values taken from patent publication US9540428B2, “Extracellular matrix heparin-binding domains” (EPFL-TTO, priority 2012, dated 2017).

T1: PlGF-3 (Homo sapiens, UniProt P49763)
T1 sequence (P49763 19-221): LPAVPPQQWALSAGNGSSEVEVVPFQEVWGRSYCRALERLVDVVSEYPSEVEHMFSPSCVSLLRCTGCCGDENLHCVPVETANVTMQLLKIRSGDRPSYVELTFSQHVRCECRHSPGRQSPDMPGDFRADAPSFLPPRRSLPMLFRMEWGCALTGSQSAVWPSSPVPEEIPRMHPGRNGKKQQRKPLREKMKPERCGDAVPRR

T2: BMP-2/7 (Homo sapiens, UniProt P12643+P18075)
T2 sequence (P12643 283-396): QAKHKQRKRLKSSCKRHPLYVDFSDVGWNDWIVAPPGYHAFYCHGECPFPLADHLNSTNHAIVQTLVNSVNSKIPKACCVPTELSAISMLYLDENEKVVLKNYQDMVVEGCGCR
T2 sequence (P18075 293-431): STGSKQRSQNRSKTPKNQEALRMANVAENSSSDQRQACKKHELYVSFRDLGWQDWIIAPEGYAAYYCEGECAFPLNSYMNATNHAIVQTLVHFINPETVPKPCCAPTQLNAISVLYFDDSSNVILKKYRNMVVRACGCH

T3: FGF-4 (Homo sapiens, UniProt P08620)
T3 sequence (P08620 31-206): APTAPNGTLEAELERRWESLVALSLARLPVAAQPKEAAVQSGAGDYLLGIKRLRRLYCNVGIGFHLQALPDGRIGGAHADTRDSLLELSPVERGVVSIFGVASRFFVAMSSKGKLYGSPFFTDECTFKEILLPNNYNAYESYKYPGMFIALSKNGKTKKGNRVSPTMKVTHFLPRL

T4: VEGF-C (Homo sapiens, UniProt P49767)
T4 sequence (P49767 112-419): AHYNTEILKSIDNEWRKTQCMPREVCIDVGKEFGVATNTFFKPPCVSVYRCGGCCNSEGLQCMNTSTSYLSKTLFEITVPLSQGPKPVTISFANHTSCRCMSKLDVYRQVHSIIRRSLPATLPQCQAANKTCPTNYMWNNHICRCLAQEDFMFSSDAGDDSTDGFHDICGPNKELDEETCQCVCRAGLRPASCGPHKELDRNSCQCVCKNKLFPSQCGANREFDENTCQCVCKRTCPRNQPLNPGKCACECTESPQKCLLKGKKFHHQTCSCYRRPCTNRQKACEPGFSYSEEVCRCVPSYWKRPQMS

T5: FGF-6 (Homo sapiens, UniProt P10767)
T5 sequence (P10767 38-208): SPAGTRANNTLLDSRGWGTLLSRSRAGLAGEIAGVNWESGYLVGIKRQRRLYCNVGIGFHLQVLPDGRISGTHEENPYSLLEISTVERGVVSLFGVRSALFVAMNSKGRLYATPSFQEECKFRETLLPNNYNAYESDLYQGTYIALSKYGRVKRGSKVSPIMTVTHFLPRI

T6: FGF-17 (Homo sapiens, UniProt O60258)
T6 sequence (O60258 23-216): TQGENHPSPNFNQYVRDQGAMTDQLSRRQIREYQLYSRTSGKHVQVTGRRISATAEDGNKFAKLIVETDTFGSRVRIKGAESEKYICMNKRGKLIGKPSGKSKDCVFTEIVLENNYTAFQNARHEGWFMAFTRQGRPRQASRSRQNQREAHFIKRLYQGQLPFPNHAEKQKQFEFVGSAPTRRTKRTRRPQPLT

B1: Fg β15-66: heparin-binding domain of human fibrinogen β chain aa15-66 (SEQ ID NO:8); construct with TG substrate and His tag, SEQ ID NO:2 (protein)
chain: GSNQEQVSPLGHRPLDKKREEAPSLRPAPPPISGGGYRARPAKAAATQKKVERKAPDAGGCGHHHHHH
modifications: GS linker, transglutaminase substrate, the Fg beta15-66, with a Histidine tag
B2: TNC III1-5: recombinant tenascin C fibronectin type III repeats 1-5 (E622 to A1074) with transglutaminase substrate NQEQVSPL and 6×His tag, SEQ ID NO:1 (protein)
chain: METDTLLLWVLLLWVPGSTGDAAQPAIEGRNQEQVSPLGGSEVSPPKDLVVTEVTEETVNLAWDNEMRVTEYLVVYTPTHEGGLEMQFRVPGDQTSTIIQELEPGVEYFIRVFAILENKKSIPVSARVATYLPAPEGLKFKSIKETSVEVEWDPLDIAFETWEIIFRNMNKEDEGEITKSLRRPETSYRQTGLAPGQEYEISLHIVKNNTRGPGLKRVTTTRLDAPSQIEVKDVTDTTALITWFKPLAEIDGIELTYGIKDVPGDRTTIDLTEDENQYSIGNLKPDTEYEVSLISRRGDMSSNPAKETFTTGLDAPRNLRRVSQTDNSITLEWRNGKAAIDSYRIKYAPISGGDHAEVDVPKSQQATTKTTLTGLRPGTEYGIGVSAVKEDKESNPATINAATELDTPKDLQVSETAETSLTLLWKTPLAKFDRYRLNYSLPTGQWVGVQLPRNTTSYVLRGLEPGQEYNVLLTAEKGRHKSKPARVKASTEQAGGGSHHHHHH
modifications: Tenascin III signal sequence with polyhistidine tag

Assays:
[1] = target: T1, PlGF-3; assay: ELISA binding to coated PlGF-3; details: 50 nM cytokine coated
Protocol: (§1) ELISA plates were coated with cytokines or BSA and further incubated with TNC III1-5 to analyze binding of TNC III1-5 to a wide variety of cytokines. […] Results are depicted in FIG. 3. Method: 50 nM of cytokine was coated for (1 hr, 37° C.). After blocking with 2% BSA (1 hr, RT). 100 nM TNC III1-5 was applied in PBST (0.05% tween, 0.1% bovine serum albumin (BSA)) (1 hr, RT). TNC III1-5 was detected with horseradish peroxidase (HRP)-anti-HIS in PBST (1 hr, RT) and developed with 3,3′,5,5′-tetramethylbenzidine (TMB), a soluble colorimetric HRP […]. Addition of sulfuric acid stop solution changes the color to yellow, enabling accurate measurement of the intensity at 450 nm using a spectrophotometer or plate reader. […] Heparin (4 μM) was added to TNC III1-5 to test the effect of blocking the heparin binding site of TNC III1-5, which has been defined as domain TNC III5 (Weber, Zimmermann, et al., 1995).
(§2) ELISA plates were coated with cytokines or BSA and further incubated with Fg β15-66 to analyze binding of […] to a wide variety of cytokines. […] Results are depicted in FIG. 4. Method: The methods were analogous to those used in Example 3.

[2] = target: T2, BMP-2/7; assay: ELISA binding to coated BMP-2/7; details: 50 nM cytokine coated
Protocol: as §1, §2

[3] = test system: skin wounds; assay: Full-thickness back-skin wound healing in diabetic mice; type: in vivo; details: TG-PEG gels functionalized with TG-Fg β15-66 delivering FGF-2 and PlGF-2; 10 days
Protocol: Method: Full-thickness back-skin wounds were treated with combined FGF-2 and PlGF-2. Seven groups were tested: treatment (no ECM); fibrin only; fibrin containing cytokines; PEG only, PEG containing cytokines; PEG functionalized with TG-Fg β15-66, and PEG functionalized with TG-Fg β15-66 containing cytokines. After 10 days, wound closure and granulation tissue area were evaluated by histology. FIG. 20 details the results.

[4] = target: T3, FGF-4; assay: ELISA binding to coated FGF-4; details: 50 nM cytokine coated
Protocol: as §1

[5] = target: PDGF-DD (Homo sapiens, UniProt Q9GZP0); assay: ELISA binding to coated PDGF-DD; details: 50 nM cytokine coated
Protocol: as §1

[6] = target: T4, VEGF-C; assay: ELISA binding to coated VEGF-C; details: 50 nM cytokine coated
Protocol: as §1

[7] = test system: SMC; assay: Smooth muscle cell proliferation on modified TG-PEG gels with PDGF-BB; type: cell-based
Protocol: Method: Three different gels were fabricated, unmodified PEG, and PEG gels modified with TNC III1-5 or FN III9*-10,TNC III1-5 (5 μM). Unbound fragment was washed from the gels. Sequentially, gels were incubated for 1 hour at 37° C. with 100 μL DMEM without PDGF-BB or with PDGF-BB (1 ng per gel). For one set of gels, the media containing PDGF-BB was removed and gels were washed for 1 hour at RT. Cells were added to each gel and a proliferation assay with Alamar Blue was performed at 72 hours.

[8] = target: T5, FGF-6; assay: ELISA binding to coated FGF-6; details: 50 nM cytokine coated
Protocol: as §1

[9] = target: T6, FGF-17; assay: ELISA binding to coated FGF-17; details: 50 nM cytokine coated
Protocol: as §1

[10] = target: HGF (Homo sapiens, UniProt P14210); assay: ELISA binding to coated HGF; details: 50 nM cytokine coated
Protocol: as §1

Chain of HGF (P14210 32-728, species assumed): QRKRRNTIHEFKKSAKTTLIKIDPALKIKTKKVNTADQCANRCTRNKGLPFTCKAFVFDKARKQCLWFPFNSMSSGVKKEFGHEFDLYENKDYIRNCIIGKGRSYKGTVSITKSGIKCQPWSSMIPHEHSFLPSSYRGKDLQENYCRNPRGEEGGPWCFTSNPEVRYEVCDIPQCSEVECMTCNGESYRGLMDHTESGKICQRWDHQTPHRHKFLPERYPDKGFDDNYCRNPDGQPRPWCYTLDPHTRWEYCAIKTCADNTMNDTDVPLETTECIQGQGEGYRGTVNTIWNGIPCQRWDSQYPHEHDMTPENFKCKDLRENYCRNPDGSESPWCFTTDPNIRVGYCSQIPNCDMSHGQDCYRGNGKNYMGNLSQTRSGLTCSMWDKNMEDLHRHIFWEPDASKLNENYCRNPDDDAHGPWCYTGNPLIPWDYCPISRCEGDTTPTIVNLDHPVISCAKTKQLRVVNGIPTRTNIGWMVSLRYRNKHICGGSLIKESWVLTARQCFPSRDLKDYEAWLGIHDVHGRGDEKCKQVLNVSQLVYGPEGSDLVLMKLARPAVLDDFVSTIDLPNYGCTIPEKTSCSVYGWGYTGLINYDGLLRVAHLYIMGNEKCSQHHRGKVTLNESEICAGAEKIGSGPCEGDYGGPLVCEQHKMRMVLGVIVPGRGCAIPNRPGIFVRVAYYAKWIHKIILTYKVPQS
Chain of PDGF-DD (Q9GZP0 250-370 limits assumed): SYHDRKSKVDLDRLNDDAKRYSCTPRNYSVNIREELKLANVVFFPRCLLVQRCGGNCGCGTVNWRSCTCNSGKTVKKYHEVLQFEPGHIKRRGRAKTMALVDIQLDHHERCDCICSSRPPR

Molecule | binding to PlGF-3 (ELISA, signal above BSA background) [1] | binding to BMP-2/7 (ELISA, signal above BSA background) [2] | skin-wound healing [3] | binding to FGF-4 (ELISA, signal above BSA background) [4] | binding to PDGF-DD (ELISA, signal above BSA background) [5] | binding to VEGF-C (ELISA, signal above BSA background) [6] | SMC proliferation on TG-PEG gels (2%) ([7]; in the presence of PDGF-BB, 5 μM fragment, 72 hours) | SMC proliferation on modified gels vs unmodified gels ([7]; unbound PDGF-BB removed, p<0.05) | binding to FGF-6 (ELISA, signal above BSA background) [8] | binding to FGF-17 (ELISA, signal above BSA background) [9] | binding to HGF (ELISA, signal above BSA background) [10]
B1 | positive binding | positive binding | enhanced skin-wound healing |  |  |  |  |  |  |  | 
B2 |  |  |  | positive binding | positive binding | positive binding | enhanced SMC proliferation | significantly increased proliferation | positive binding | positive binding | positive binding
